Assay results published in patent US20240424120A1.
Starred links: 1 amine or outer side, 2 acyl side, 3 side chain; linkers in the order of their positions; H or OH if unused. Positions of bridges follow the written chain, without caps; N, C: chain ends. Non-standard residues stand in square brackets, D forms with d. No end group written: not given here. TATA = O=C(CC[*:1])N1CN(C(=O)CC[*:2])CN(C(=O)CC[*:3])C1; 1Nal = N[C@@H](Cc1cccc2ccccc12)C(=O)O; Hyp = O=C(O)[C@@H]1C[C@@H](O)CN1; hArg = N=C(N)NCCCC[C@H](N)C(=O)O; Pen = CC(C)(S)[C@H](N)C(=O)O; hCys = N[C@@H](CCS)C(=O)O; βAla = NCCC(=O)O; Sar = CNCC(=O)O

B1: Acetate salt of PDC_2 (peptide)
peptide: [βAla][Sar][Sar][Sar][Sar][Sar][Sar][Sar][Sar][Sar][Sar]K[Sar]DCP[1Nal][dD][Pen]M[hArg]DWSTP[Hyp]WC-NH2
modifications: lactam 12-14; linker 15-19-29 via TATA; also: drug-linker INT_1 coupled, site not given here, acetate salt
B2: Acetate salt of PDC_3 (peptide)
peptide: [βAla][Sar][Sar][Sar][Sar][Sar][Sar][Sar][Sar][Sar][Sar]K[Sar]DCP[1Nal][dD][Pen]M[hArg]DWSTP[Hyp]W[hCys]
modifications: not fully specified (C-terminus); cysteine pairing not given here; also: further groups not given here, drug-linker INT_1 coupled, site not given here, acetate salt
B3: Acetate salt of PDC_1 (peptide)
peptide: [βAla][Sar][Sar][Sar][Sar][Sar][Sar][Sar][Sar][Sar][Sar]K[hArg]DCP[1Nal][dD][Pen]M[hArg]DWSTP[Hyp]WC-NH2
modifications: lactam 12-14; linker 15-19-29 via TATA; also: drug-linker INT_1 coupled, site not given here, acetate salt

How the values were obtained:
Human Nectin-4 (human) [1] = biological target: Human Nectin-4 (human) (UniProt Q96NY8); assay: SPR (Biacore 8K), Nectin-4 amine-coupled on CM5 chip, compound as analyte, multi-cycle kinetics, 1:1 model; average of two tests
Human Nectin-4 (human) [2] = biological target: Human Nectin-4 (human) (UniProt Q96NY8); assay: SPR (Biacore 8K), Nectin-4 amine-coupled on CM5 chip, compound as analyte, multi-cycle kinetics, 1:1 model

Sequence of Human Nectin-4 (human) (Q96NY8 32-349 limits assumed): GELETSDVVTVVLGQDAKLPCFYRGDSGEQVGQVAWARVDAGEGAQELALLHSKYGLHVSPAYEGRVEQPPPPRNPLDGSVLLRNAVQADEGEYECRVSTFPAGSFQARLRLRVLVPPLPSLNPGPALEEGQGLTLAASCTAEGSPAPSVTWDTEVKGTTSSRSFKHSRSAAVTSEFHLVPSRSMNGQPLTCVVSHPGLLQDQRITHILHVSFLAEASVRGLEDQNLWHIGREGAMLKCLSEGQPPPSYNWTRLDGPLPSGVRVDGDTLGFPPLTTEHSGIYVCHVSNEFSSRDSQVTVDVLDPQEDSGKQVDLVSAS

| Binder | Kd (Human Nectin-4 (human) [1]) | Kd (Human Nectin-4 (human) [2]) |
| --- | --- | --- |
| B1 | 0.43 nM | – |
| B2 | – | 4.13 nM |
| B3 | – | 1.4 nM |
